In patent publication US9579365B2, “Therapeutic ribonucleases” (Quintessence Biosciences, Inc., priority 2008, dated 2017):

Key:
RNA = assay: ribonuclease (enzyme) activity compared with native human RNase 1; assay type: biochemical
ribonuclease inhibitor = biological target: T1, ribonuclease inhibitor (Homo sapiens, UniProt P13489); assay: ribonuclease inhibitor evasion; assay type: binding; settings: compared with QBI-119 and native human RNase 1
T1 sequence (P13489 1-461): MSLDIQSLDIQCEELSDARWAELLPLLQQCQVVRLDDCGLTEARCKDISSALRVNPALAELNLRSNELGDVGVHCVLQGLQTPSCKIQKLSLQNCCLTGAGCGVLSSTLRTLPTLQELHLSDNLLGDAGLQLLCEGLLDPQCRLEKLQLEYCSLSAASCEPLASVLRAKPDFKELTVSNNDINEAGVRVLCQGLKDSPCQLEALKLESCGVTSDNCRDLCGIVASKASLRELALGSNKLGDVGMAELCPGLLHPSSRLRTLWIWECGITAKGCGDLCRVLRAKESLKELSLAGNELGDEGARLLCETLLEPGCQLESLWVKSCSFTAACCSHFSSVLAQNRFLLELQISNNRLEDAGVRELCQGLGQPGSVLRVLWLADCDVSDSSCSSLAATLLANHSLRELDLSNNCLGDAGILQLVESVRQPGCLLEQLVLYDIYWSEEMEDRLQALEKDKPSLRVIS

B1: SEQ ID NO:1: native human RNase 1 with amino acid modifications R4C, G38R, R39G, N67R, G89R, S90R, and V118C (protein)
chain: KESCAKKFQRQHMDSDSSPSSSSTYCNQMMRRRNMTQRGCKPVNTFVHEPLVDVQNVCFQEKVTCKRGQGNCYKSNSSMHITDCRLTNRRRYPNCAYRTSPKERHIIVACEGSPYVPCHFDASVEDST
- enzyme activity, comparison in words (RNA; compared with QBI-119 and native human RNase 1): inferior to QBI-119 and native human RNase 1
- fraction of the ribonuclease activity of native human RNase1 (RNA; relative to native human RNase 1): less than 1%
- ribonuclease inhibitor evasion, comparison in words (ribonuclease inhibitor): inferior to QBI-119 and native human RNase 1
